In this experiment the target is T1, 人Claudin 18.2 (紧密连接蛋白-18.2) (human).
T1 construct: Full-length protein stably expressed on HEK293 or NIH-3T3 cells; also called 紧密连接蛋白18剪接变体2
The experiment can be described thus: flow cytometry on HEK293-Claudin 18.2 stable cells, recombinant antibody titrated from 600 nM in 3-fold steps. (A flow cytometer gives signals particle by particle.)

T1 sequence (chain, as listed by the source limits assumed): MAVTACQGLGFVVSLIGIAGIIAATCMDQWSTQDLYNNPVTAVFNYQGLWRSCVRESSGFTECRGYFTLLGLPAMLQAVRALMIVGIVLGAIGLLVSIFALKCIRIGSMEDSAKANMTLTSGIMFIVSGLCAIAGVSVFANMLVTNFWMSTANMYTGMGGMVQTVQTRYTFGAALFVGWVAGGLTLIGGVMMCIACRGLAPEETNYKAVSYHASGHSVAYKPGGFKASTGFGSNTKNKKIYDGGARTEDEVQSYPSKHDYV

B1: 4F6-G11 (antibody, V domains shown)
VH: DVQLVESGGGLVQPGGSRKLSCGASGFTFSSFGMHWVRQAPEKGLEWVAYISSDSSTKHYADIVKGRFTVSRDNPRNTLFLQMTSLGSEDTAIYYCARLRRGGNALDYWGQGTSVTVSS
VL: DIVMTQSPSFLTVTAGEKVTMSCRSSQSLLNSGNQRNYLTWYQHKPGQSPKLLIYWASTRESGVPDRFTGSGSGTTFTLTISSVQPEDLAVFYCQNNYYFPFTFGSGTKLEIR
notes: Mouse monoclonal antibody; also called 4F6-Gl1; 重组抗体4F6-G11
Regarding B1, the EC50 (commonly the concentration needed to bring the measured effect to its halfway point) came to 1.18 nM.

B2: 3H2-C5 (antibody, V domains shown)
VH: DVQLVESGGGLLQPGGSRKLSCAASGFSFSNFGMHWFRQAPEKGLEWVAFISGGSSPIYYADTVKGRFTISRDNPTNTLFLQMTSLRSEDTAMYYCARFRRGGNAMDYWGQGTSVTVSS
VL: DIVMTQSPSSLTVTAREKVTMSCKSSQSLFNSGNQRNYLTWYQQKPGQPPKLLIYWASTRESGVPDRFTGSGSGTDFTLTIRSVQAEDLAVYYCQNSYSYPFTLGSGTKLEIK
notes: Mouse monoclonal antibody; also called 抗体3H2-C5; 重组抗体3H2-C5
Take B2: the EC50 came to 1.01 nM.
